Experimental findings from paper PMC9109600 are described below.

Substrate in the data set: Nc1nc2nc[nH]c2c(=O)[nH]1
In words: purified protein. Conditions: zinc active site.

B1: Guanine deaminase (GDA) (Homo sapiens) (protein)
chain: MCAAQMPPLAHIFRGTFVHSTWTCPMEVLRDHLLGVSDSGKIVFLEEASQQEKLAKEWCFKPCEIRELSHHEFFMPGLVDTHIHASQYSFAGSSIDLPLLEWLTKYTFPAEHRFQNIDFAEEVYTRVVRRTLKNGTTTACYFATIHTDSSLLLADITDKFGQRAFVGKVCMDLNDTFPEYKETTEESIKETERFVSEMLQKNYSRVKPIVTPRFSLSCSETLMGELGNIAKTRDLHIQSHISENRDEVEAVKNLYPSYKNYTSVYDKNNLLTNKTVMAHGCYLSAEELNVFHERGASIAHCPNSNLSLSSGFLNVLEVLKHEVKIGLGTDVAGGYSYSMLDAIRRAVMVSNILLINKVNEKSLTLKEVFRLATLGGSQALGLDGEIGNFEVGKEFDAILINPKASDSPIDLFYGDFFGDISEAVIQKFLYLGDDRNIEEVYVGGKQVVPFSSSV
For orientation: Km means the concentration of substrate that gives half-maximal velocity. For B1, the Km worked out at 12 ± 9 µM.
